This is an account of results in the array DNA melting data of Ke et al..

This data set in a line: melting temperature; melt of duplexes. As to conditions: sodium 0.0675 M; strand 1 µM.
Regarding “CGACGTGCGGTATGTGCTG+CAGCACATAGCGCACGTCG (((((((((.(((((((((+))))))))).)))))))))”, the melting temperature (Tm) was 62.5 °C.

As for “CGACGTGCCCTATGTGCTG+CAGCACATGCCGCACGTCG ((((((((...((((((((+))))))))...))))))))”, the Tm was found to be 47.7 °C.

On to “CGACGTGCCCCATGTGCTG+CAGCACATGTAGCACGTCG ((((((((..(((((((((+)))))))))..))))))))”, for which the Tm stood at 51.9 °C.

Regarding “CGACGTGCCCTATGTGCTG+CAGCACATAACGCACGTCG ((((((((..(((((((((+)))))))))..))))))))”, the midpoint of thermal melting (Tm) was 48.7 °C.

For “CGACGTGCTCTATGTGCTG+CAGCACATCCCGCACGTCG ((((((((...((((((((+))))))))...))))))))”, the Tm came out at 47.5 °C.

As for “CGACGTGCATCATGTGCTG+CAGCACATATGGCACGTCG ((((((((...((((((((+))))))))...))))))))”, the midpoint of thermal melting (Tm) was found to be 48.8 °C.

Consider “CGACGTGCCTAATGTGCTG+CAGCACATCCTGCACGTCG ((((((((...((((((((+))))))))...))))))))”, for which the melting temperature (Tm) was found to be 47.9 °C.

In the case of “CGACGTGCCCGATGTGCTG+CAGCACATCGTGCACGTCG ((((((((.((((((((((+)))))))))).))))))))”, the Tm is 57.1 °C.

Consider “CGACGTGCCTAATGTGCTG+CAGCACATAGGGCACGTCG (((((((((..((((((((+))))))))..)))))))))”, for which the Tm is 55.4 °C.

For the substance “CGACGTGCGAAATGTGCTG+CAGCACATTGTGCACGTCG ((((((((..(((((((((+)))))))))..))))))))”, the midpoint of thermal melting (Tm) stood at 52.4 °C.

Consider “CGACGTGCCCGATGTGCTG+CAGCACATGCAGCACGTCG ((((((((...((((((((+))))))))...))))))))”, for which the Tm amounted to 49.6 °C.

As to “CGACGTGCCGTATGTGCTG+CAGCACATGATGCACGTCG ((((((((...((((((((+))))))))...))))))))”, the melting temperature (Tm) is 49.2 °C.

Take “CGACGTGCGTAATGTGCTG+CAGCACATTTTGCACGTCG ((((((((..(((((((((+)))))))))..))))))))”: the Tm is 54.4 °C.

On to “CGACGTGCGGCATGTGCTG+CAGCACATACGGCACGTCG ((((((((.(.((((((((+)))))))).).))))))))”, for which the melting temperature (Tm) is 51.5 °C.

With “CGACGTGCGCTATGTGCTG+CAGCACATTTAGCACGTCG ((((((((...((((((((+))))))))...))))))))”, the Tm turned out to be 51.6 °C.

As to “CGACGTGCCTCATGTGCTG+CAGCACATGCGGCACGTCG (((((((((.(((((((((+))))))))).)))))))))”, the Tm turned out to be 58.3 °C.

Take “CGACGTGCCCTATGTGCTG+CAGCACATGACGCACGTCG ((((((((...((((((((+))))))))...))))))))”: the Tm was 44 °C.

With “CGACGTGCGATATGTGCTG+CAGCACATTTTGCACGTCG ((((((((.(.((((((((+)))))))).).))))))))”, the midpoint of thermal melting (Tm) came out at 52.5 °C.

For the substance “CGACGTGCCTAATGTGCTG+CAGCACATAGCGCACGTCG ((((((((...((((((((+))))))))...))))))))”, the Tm was 50.3 °C.

Take “CGACGTGCGGCATGTGCTG+CAGCACATGTTGCACGTCG ((((((((..(((((((((+)))))))))..))))))))”: the Tm was found to be 57.6 °C.

Regarding “CGACGTGCCGCATGTGCTG+CAGCACATAAAGCACGTCG ((((((((...((((((((+))))))))...))))))))”, the Tm amounted to 50.1 °C.

“CGACGTGCCTAATGTGCTG+CAGCACATCCAGCACGTCG ((((((((...((((((((+))))))))...))))))))”: the midpoint of thermal melting (Tm) was determined as 48.7 °C.

Turning to “CGACGTGCAGAATGTGCTG+CAGCACATCCGGCACGTCG ((((((((.(.((((((((+)))))))).).))))))))”, the midpoint of thermal melting (Tm) worked out at 52.7 °C.

As to “CGACGTGCGTCATGTGCTG+CAGCACATATGGCACGTCG ((((((((...((((((((+))))))))...))))))))”, the Tm stood at 49.8 °C.

Consider “CGACGTGCGTGATGTGCTG+CAGCACATACCGCACGTCG (((((((((..((((((((+))))))))..)))))))))”, for which the Tm came out at 55.3 °C.

In the case of “CGACGTGCAGGATGTGCTG+CAGCACATCCTGCACGTCG (((((((((((((((((((+)))))))))))))))))))”, the Tm is 66 °C.

For “CGACGTGCCTAATGTGCTG+CAGCACATTGCGCACGTCG ((((((((..(((((((((+)))))))))..))))))))”, the Tm was found to be 51 °C.

As for “CGACGTGCTGCATGTGCTG+CAGCACATTGCGCACGTCG ((((((((...((((((((+))))))))...))))))))”, the Tm came out at 53.5 °C.

In the case of “CGACGTGCCGAATGTGCTG+CAGCACATCAAGCACGTCG ((((((((...((((((((+))))))))...))))))))”, the Tm is 49.6 °C.

In the case of “CGACGTGCCTCATGTGCTG+CAGCACATCGTGCACGTCG ((((((((...((((((((+))))))))...))))))))”, the Tm is 43 °C.

Take “CGACGTGCTACATGTGCTG+CAGCACATACAGCACGTCG (((((((((..((((((((+))))))))..)))))))))”: the midpoint of thermal melting (Tm) turned out to be 51.5 °C.

As for “CGACGTGCTCCATGTGCTG+CAGCACATTAGGCACGTCG ((((((((...((((((((+))))))))...))))))))”, the melting temperature (Tm) worked out at 48.4 °C.

As to “CGACGTGCCGGATGTGCTG+CAGCACATTGAGCACGTCG ((((((((...((((((((+))))))))...))))))))”, the midpoint of thermal melting (Tm) worked out at 50.8 °C.

With “CGACGTGCGAGATGTGCTG+CAGCACATCCAGCACGTCG ((((((((..(((((((((+)))))))))..))))))))”, the midpoint of thermal melting (Tm) amounted to 56.5 °C.

With “CGACGTGCGGTATGTGCTG+CAGCACATGAAGCACGTCG ((((((((...((((((((+))))))))...))))))))”, the melting temperature (Tm) is 55.3 °C.

With “CGACGTGCTCGATGTGCTG+CAGCACATACTGCACGTCG ((((((((...((((((((+))))))))...))))))))”, the Tm came to 49 °C.

Take “CGACGTGCACTATGTGCTG+CAGCACATTCGGCACGTCG ((((((((...((((((((+))))))))...))))))))”: the Tm amounted to 43.7 °C.

Turning to “CGACGTGCCGCATGTGCTG+CAGCACATGTAGCACGTCG ((((((((..(((((((((+)))))))))..))))))))”, the Tm was found to be 54.4 °C.

For the substance “CGACGTGCCCTATGTGCTG+CAGCACATGCTGCACGTCG ((((((((...((((((((+))))))))...))))))))”, the Tm worked out at 45.4 °C.

As to “CGACGTGCTGTATGTGCTG+CAGCACATGGGGCACGTCG ((((((((...((((((((+))))))))...))))))))”, the Tm was 51.4 °C.

As to “CGACGTGCTGTATGTGCTG+CAGCACATAGGGCACGTCG ((((((((..(((((((((+)))))))))..))))))))”, the Tm is 52.2 °C.

With “CGACGTGCCCGATGTGCTG+CAGCACATTCGGCACGTCG (((((((((..((((((((+))))))))..)))))))))”, the melting temperature (Tm) was 54.9 °C.

In the case of “CGACGTGCGTGATGTGCTG+CAGCACATATGGCACGTCG ((((((((...((((((((+))))))))...))))))))”, the midpoint of thermal melting (Tm) is 50 °C.

Regarding “CGACGTGCAGGATGTGCTG+CAGCACATAGGGCACGTCG ((((((((...((((((((+))))))))...))))))))”, the melting temperature (Tm) came to 50.3 °C.

In the case of “CGACGTGCGATATGTGCTG+CAGCACATGAGGCACGTCG ((((((((...((((((((+))))))))...))))))))”, the melting temperature (Tm) is 53.1 °C.

Take “CGACGTGCTGTATGTGCTG+CAGCACATGCTGCACGTCG ((((((((.(.((((((((+)))))))).).))))))))”: the Tm came to 54.1 °C.

On to “CGACGTGCACAATGTGCTG+CAGCACATTGGGCACGTCG ((((((((.((((((((((+)))))))))).))))))))”, for which the midpoint of thermal melting (Tm) was 61.2 °C.

“CGACGTGCACGATGTGCTG+CAGCACATGTAGCACGTCG ((((((((...((((((((+))))))))...))))))))”: the Tm was 48.7 °C.

In the case of “CGACGTGCTACATGTGCTG+CAGCACATCTCGCACGTCG ((((((((.(.((((((((+)))))))).).))))))))”, the melting temperature (Tm) was 47.2 °C.

With “CGACGTGCCCCATGTGCTG+CAGCACATGAGGCACGTCG (((((((((.(((((((((+))))))))).)))))))))”, the melting temperature (Tm) is 59.6 °C.

As for “CGACGTGCTGAATGTGCTG+CAGCACATTACGCACGTCG ((((((((..(((((((((+)))))))))..))))))))”, the Tm was 52.7 °C.

With “CGACGTGCTGAATGTGCTG+CAGCACATAGAGCACGTCG (((((((((..((((((((+))))))))..)))))))))”, the midpoint of thermal melting (Tm) was 52.2 °C.

On to “CGACGTGCCTCATGTGCTG+CAGCACATGATGCACGTCG ((((((((.((((((((((+)))))))))).))))))))”, for which the Tm was determined as 56.7 °C.

For the substance “CGACGTGCTTAATGTGCTG+CAGCACATCAGGCACGTCG ((((((((.(.((((((((+)))))))).).))))))))”, the Tm is 50.8 °C.

Regarding “CGACGTGCAAAATGTGCTG+CAGCACATGAGGCACGTCG ((((((((...((((((((+))))))))...))))))))”, the Tm was 52.5 °C.

For “CGACGTGCGCAATGTGCTG+CAGCACATCTGGCACGTCG ((((((((...((((((((+))))))))...))))))))”, the Tm came out at 49.8 °C.

Consider “CGACGTGCGTTATGTGCTG+CAGCACATAGCGCACGTCG (((((((((.(((((((((+))))))))).)))))))))”, for which the Tm came to 58.3 °C.

Take “CGACGTGCACAATGTGCTG+CAGCACATGGGGCACGTCG ((((((((.(.((((((((+)))))))).).))))))))”: the midpoint of thermal melting (Tm) was 55.2 °C.

With “CGACGTGCATTATGTGCTG+CAGCACATCGTGCACGTCG (((((((((..((((((((+))))))))..)))))))))”, the midpoint of thermal melting (Tm) is 47.3 °C.

In the case of “CGACGTGCGGTATGTGCTG+CAGCACATACGGCACGTCG ((((((((.((((((((((+)))))))))).))))))))”, the Tm came out at 58.5 °C.

As to “CGACGTGCTATATGTGCTG+CAGCACATGATGCACGTCG ((((((((...((((((((+))))))))...))))))))”, the Tm is 51.9 °C.

Regarding “CGACGTGCCTGATGTGCTG+CAGCACATAACGCACGTCG ((((((((.(.((((((((+)))))))).).))))))))”, the Tm worked out at 48.8 °C.

For the substance “CGACGTGCGTCATGTGCTG+CAGCACATTTAGCACGTCG ((((((((...((((((((+))))))))...))))))))”, the midpoint of thermal melting (Tm) was determined as 51.6 °C.

On to “CGACGTGCAGCATGTGCTG+CAGCACATCAGGCACGTCG ((((((((...((((((((+))))))))...))))))))”, for which the Tm stood at 47.3 °C.

In the case of “CGACGTGCACTATGTGCTG+CAGCACATAGGGCACGTCG ((((((((.((((((((((+)))))))))).))))))))”, the Tm was determined as 58.9 °C.

Turning to “CGACGTGCTTGATGTGCTG+CAGCACATAACGCACGTCG ((((((((.(.((((((((+)))))))).).))))))))”, the Tm is 50.8 °C.
